One data set has as its target T1, SpHex (Streptomyces plicatus, UniProt O85361).
T1 construct: gene hex
T1 sequence (O85361 1-506): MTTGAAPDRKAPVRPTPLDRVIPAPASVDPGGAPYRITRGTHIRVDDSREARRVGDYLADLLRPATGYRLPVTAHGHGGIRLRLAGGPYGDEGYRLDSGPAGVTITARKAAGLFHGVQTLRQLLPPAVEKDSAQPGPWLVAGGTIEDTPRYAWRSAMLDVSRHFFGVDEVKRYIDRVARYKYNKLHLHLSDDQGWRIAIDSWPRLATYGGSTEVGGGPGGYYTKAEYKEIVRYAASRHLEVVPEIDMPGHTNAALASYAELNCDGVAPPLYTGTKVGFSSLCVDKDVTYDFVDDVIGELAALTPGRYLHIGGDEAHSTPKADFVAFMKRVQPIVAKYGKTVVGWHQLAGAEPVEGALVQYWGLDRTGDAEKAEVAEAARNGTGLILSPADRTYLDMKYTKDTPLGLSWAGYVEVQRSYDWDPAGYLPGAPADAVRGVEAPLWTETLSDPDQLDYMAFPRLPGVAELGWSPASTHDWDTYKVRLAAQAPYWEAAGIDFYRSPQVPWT
The data set can be described thus: transglycosylation time course, TLC. The data set is classed as biochemical. The following applies: donor 100 mM; acceptor 200 mM lactose; 50 mM sodium phosphate pH 8.0, 0.5% BSA, 37 °C.

Substrate in data set [1]: CC(=O)N[C@H]1[C@H](Oc2ccc([N+](=O)[O-])cc2)O[C@H](CO)[C@@H](O)[C@@H]1O
Briefly: purified protein. Type of data set: biochemical, Paraglaciecola hydrolytica. The conditions noted are these: two-fold diluted McIlvaine buffer pH 6.0, 0.05% BSA, 37 °C.

Substrate in data set [2]: CC(=O)N[C@H]1[C@H](Oc2ccc([N+](=O)[O-])cc2)O[C@H](CO)[C@H](O)[C@@H]1O
Briefly: purified protein. The following applies: two-fold diluted McIlvaine buffer pH 6.0, 0.05% BSA, 37 °C. Type of data set: biochemical, Paraglaciecola hydrolytica.

2 molecules from article PMC7014002, “Identification and Characterization of a β-N-Acetylhexosaminidase with a Biosynthetic Activity from the Marine Bacterium Paraglaciecola hydrolytica S66^T” (International Journal of Molecular Sciences, 2020) can be followed below.

In the case of `CC1=N[C@H]2[C@@H](O1)O[C@H](CO)[C@@H](O)[C@@H]2O` [NAG-oxazoline, 2-methyl-(1,2-dideoxy-α-D-glucopyrano)-oxazoline], the “transglycosylation time course, TLC” value at SpHex is given as “We here also demonstrated transglycosylation by the commercial GH20 N-acetylglucosaminidase from S. plicatus (SpHex)”.

B1: PhNah20A (Paraglaciecola hydrolytica) (protein)
chain: MYKIIIAGLGLLWSITSHGMQPLNLMPYPSEVQQQAGHFTLPSQLKVFTQHVSEARCELIKEQLEQLQQVEVLWVTAKDQANLLVEVEGVTQVMEVGGKSGELIPTLHDNEQYHLSVSPRLITLKAQTERGMLHGVQTLLQLVNRTQRSIPAVDIDDKPRFAWRGLLIDSVRHFMPVDTIKRQLRGMASAKLNVLHWHLTDDQGWRIASKAYPKLQLLASDGLFYTQQQIREVVQYAALLGIRVVPEFDVPGHASAIAVAYPELITQPGPYTMQRHWGVFEPLLDPSNPQVYQFIETIISELAELFPDVYVHIGGDEIEPTQWQQSQAVQHYMQQHQLADEHQLHAYFNQQVQQILSKYGKQMMGWDEVFATDLPKDIVVQSWRGLDSLQHIASSDYQVLLSTGYYVDQPQEAAYHYRNDPFTSFKQPSFKTQDIKHWQHWQFTMPRLKGSAVSGEFVLLSSEAGKQVLLRFNNQQARLINELEPRANLQRFTVDSWMGPSQFELDLSKDVIQQGRILIGNTPYSVSGNRLAQSTGSKALPAMLQDFVAASKVPTDLPKLHKNILGGEAAIWSEIVRADNLDLRLWPRLYAIAERLWSPATLTDEDAMYRRLTVMQTYASEVIGLEFTQQQRAGFKQLTSQDADIEPLIILAEAVEQAQYYTRHHSKFQHDNYHQLVELNQYVDYLSAQSLGLVELKRHIELFQQGDQQAKKFIEQLLQKWQKNLPKLKLLIANYPKLHSLAPLVTTLSQVVDIGQKLVAQCAKGEPLKPEHQRDVQQQLWQAAQLQQEMVVSSALAIEALAFKCRA
The Km is the substrate concentration at which the rate is half of its maximum. Broadly, the kcat is the number of substrate molecules converted per active site and unit of time at saturation. A word on the kcat/Km: it is the second-order rate constant that governs catalysis at low substrate concentration. As to B1, in the data set “purified protein [1]”, the Km is 430 ± 70 µM, the kcat was 147 s⁻¹ and the kcat/Km was 341000 M⁻¹ s⁻¹. Further, in “purified protein [2]”, the Km came out at 560 ± 110 µM, the turnover number (kcat) was found to be 193 s⁻¹ and the catalytic efficiency (kcat/Km) was found to be 344000 M⁻¹ s⁻¹.
